Patent US20140213513A1 (Sanofi, priority 2012, published 2014)
*1 amine or outer side, *2 acyl side, *3 side chain or, on linkers, in order; H or OH if unused. Where no end group is shown, it is not given here. Side-chain parts run from the residue outwards. [ ]: non-standard residue; d: D form. The star is where a group is joined. γGlu = O=C(O)[C@H](CCC(=O)[*:2])N[*:1]; Stearoyl = CCCCCCCCCCCCCCCCCC(=O)*; Palmitoyl = CCCCCCCCCCCCCCCC(=O)*; Aib = CC(C)(N)C(=O)O

Experiments:
Assay in all cases: cell-based or functional assay
human GLP-1 receptor = human GLP-1 receptor (human, UniProt P43220 24-463)
human GIP receptor = target: T1, human GIP receptor (human, UniProt P48546 22-466)
T1 sequence (looked up): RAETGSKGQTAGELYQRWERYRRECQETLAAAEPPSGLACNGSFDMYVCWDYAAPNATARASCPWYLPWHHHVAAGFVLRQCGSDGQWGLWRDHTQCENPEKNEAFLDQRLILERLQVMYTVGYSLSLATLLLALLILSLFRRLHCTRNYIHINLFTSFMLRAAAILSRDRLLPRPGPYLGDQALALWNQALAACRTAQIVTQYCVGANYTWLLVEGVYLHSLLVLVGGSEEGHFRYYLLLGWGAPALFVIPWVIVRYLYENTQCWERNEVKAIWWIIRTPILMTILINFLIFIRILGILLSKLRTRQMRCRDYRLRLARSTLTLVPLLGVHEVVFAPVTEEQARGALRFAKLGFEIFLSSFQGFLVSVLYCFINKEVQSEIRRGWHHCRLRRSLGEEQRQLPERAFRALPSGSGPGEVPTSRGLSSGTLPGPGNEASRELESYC

human glucagon receptor = human glucagon receptor (human, UniProt P47871 26-477)
Chain of human glucagon receptor (P47871 26-477): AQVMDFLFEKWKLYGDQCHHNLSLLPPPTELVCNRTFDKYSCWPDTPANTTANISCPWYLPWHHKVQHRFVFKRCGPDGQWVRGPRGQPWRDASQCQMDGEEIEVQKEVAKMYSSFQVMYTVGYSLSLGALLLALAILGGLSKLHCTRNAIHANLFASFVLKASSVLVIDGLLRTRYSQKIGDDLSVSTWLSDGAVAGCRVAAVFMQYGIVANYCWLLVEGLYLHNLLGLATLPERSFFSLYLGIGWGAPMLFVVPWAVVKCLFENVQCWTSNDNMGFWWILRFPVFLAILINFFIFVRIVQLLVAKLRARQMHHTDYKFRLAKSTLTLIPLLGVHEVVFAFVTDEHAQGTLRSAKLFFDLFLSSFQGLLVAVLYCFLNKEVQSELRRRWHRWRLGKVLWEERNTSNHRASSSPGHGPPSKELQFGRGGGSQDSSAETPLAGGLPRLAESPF

Binder | EC50 hGLP-1 R (human GLP-1 receptor) | EC50 hGIP R (human GIP receptor) | EC50 hGLUC R (human glucagon receptor)
Y[Aib]QGTFTSDLSIQK([γGlu-Palmitoyl])DERAAKDFIEWLKAGGPSSGAPPPS-NH2 (N-terminus assumed; SMILES CCCCCCCCCCCCCCCC(=O)N[C@@H](CCC(=O)NCCCC[C@H](NC(=O)[C@H](CCC(N)=O)NC(=O)[C@@H](NC(=O)[C@H](CO)NC(=O)[C@H](CC(C)C)NC(=O)[C@H](CC(=O)O)NC(=O)[C@H](CO)NC(=O)[C@@H](NC(=O)[C@H](Cc1ccccc1)NC(=O)[C@@H](NC(=O)CNC(=O)[C@H](CCC(N)=O)NC(=O)C(C)(C)NC(=O)[C@@H](N)Cc1ccc(O)cc1)[C@@H](C)O)[C@@H](C)O)[C@@H](C)CC)C(=O)N[C@@H](CC(=O)O)C(=O)N[C@@H](CCC(=O)O)C(=O)N[C@@H](CCCNC(=N)N)C(=O)N[C@@H](C)C(=O)N[C@@H](C)C(=O)N[C@@H](CCCCN)C(=O)N[C@@H](CC(=O)O)C(=O)N[C@@H](Cc1ccccc1)C(=O)N[C@H](C(=O)N[C@@H](CCC(=O)O)C(=O)N[C@@H](Cc1c[nH]c2ccccc12)C(=O)N[C@@H](CC(C)C)C(=O)N[C@@H](CCCCN)C(=O)N[C@@H](C)C(=O)NCC(=O)NCC(=O)N1CCC[C@H]1C(=O)N[C@@H](CO)C(=O)N[C@@H](CO)C(=O)NCC(=O)N[C@@H](C)C(=O)N1CCC[C@H]1C(=O)N1CCC[C@H]1C(=O)N1CCC[C@H]1C(=O)N[C@@H](CO)C(N)=O)[C@@H](C)CC)C(=O)O) [exendin-4 peptide analogue SEQ ID NO: 35] | 0.0035 nM | 0.0182 nM | 0.123 nM
Y[Aib]QGTFTSDLSIQK([γGlu-Palmitoyl])EKRAAHEFIEWLKNTGPSSGAPPPS-NH2 (N-terminus assumed; SMILES CCCCCCCCCCCCCCCC(=O)N[C@@H](CCC(=O)NCCCC[C@H](NC(=O)[C@H](CCC(N)=O)NC(=O)[C@@H](NC(=O)[C@H](CO)NC(=O)[C@H](CC(C)C)NC(=O)[C@H](CC(=O)O)NC(=O)[C@H](CO)NC(=O)[C@@H](NC(=O)[C@H](Cc1ccccc1)NC(=O)[C@@H](NC(=O)CNC(=O)[C@H](CCC(N)=O)NC(=O)C(C)(C)NC(=O)[C@@H](N)Cc1ccc(O)cc1)[C@@H](C)O)[C@@H](C)O)[C@@H](C)CC)C(=O)N[C@@H](CCC(=O)O)C(=O)N[C@@H](CCCCN)C(=O)N[C@@H](CCCNC(=N)N)C(=O)N[C@@H](C)C(=O)N[C@@H](C)C(=O)N[C@@H](Cc1c[nH]cn1)C(=O)N[C@@H](CCC(=O)O)C(=O)N[C@@H](Cc1ccccc1)C(=O)N[C@H](C(=O)N[C@@H](CCC(=O)O)C(=O)N[C@@H](Cc1c[nH]c2ccccc12)C(=O)N[C@@H](CC(C)C)C(=O)N[C@@H](CCCCN)C(=O)N[C@@H](CC(N)=O)C(=O)N[C@H](C(=O)NCC(=O)N1CCC[C@H]1C(=O)N[C@@H](CO)C(=O)N[C@@H](CO)C(=O)NCC(=O)N[C@@H](C)C(=O)N1CCC[C@H]1C(=O)N1CCC[C@H]1C(=O)N1CCC[C@H]1C(=O)N[C@@H](CO)C(N)=O)[C@@H](C)O)[C@@H](C)CC)C(=O)O) [exendin-4 peptide analogue SEQ ID NO: 36] | 0.0052 nM | 0.0301 nM | 0.0395 nM
Y[Aib]EGTFTSDLSIQK([γGlu-Palmitoyl])EERAAHEFIEWLKR[Aib]GPSSGAPPPS-NH2 (N-terminus assumed; SMILES CCCCCCCCCCCCCCCC(=O)N[C@@H](CCC(=O)NCCCC[C@H](NC(=O)[C@H](CCC(N)=O)NC(=O)[C@@H](NC(=O)[C@H](CO)NC(=O)[C@H](CC(C)C)NC(=O)[C@H](CC(=O)O)NC(=O)[C@H](CO)NC(=O)[C@@H](NC(=O)[C@H](Cc1ccccc1)NC(=O)[C@@H](NC(=O)CNC(=O)[C@H](CCC(=O)O)NC(=O)C(C)(C)NC(=O)[C@@H](N)Cc1ccc(O)cc1)[C@@H](C)O)[C@@H](C)O)[C@@H](C)CC)C(=O)N[C@@H](CCC(=O)O)C(=O)N[C@@H](CCC(=O)O)C(=O)N[C@@H](CCCNC(=N)N)C(=O)N[C@@H](C)C(=O)N[C@@H](C)C(=O)N[C@@H](Cc1c[nH]cn1)C(=O)N[C@@H](CCC(=O)O)C(=O)N[C@@H](Cc1ccccc1)C(=O)N[C@H](C(=O)N[C@@H](CCC(=O)O)C(=O)N[C@@H](Cc1c[nH]c2ccccc12)C(=O)N[C@@H](CC(C)C)C(=O)N[C@@H](CCCCN)C(=O)N[C@@H](CCCNC(=N)N)C(=O)NC(C)(C)C(=O)NCC(=O)N1CCC[C@H]1C(=O)N[C@@H](CO)C(=O)N[C@@H](CO)C(=O)NCC(=O)N[C@@H](C)C(=O)N1CCC[C@H]1C(=O)N1CCC[C@H]1C(=O)N1CCC[C@H]1C(=O)N[C@@H](CO)C(N)=O)[C@@H](C)CC)C(=O)O) [exendin-4 peptide analogue SEQ ID NO: 37] | 0.0066 nM | 0.0121 nM | 12.1 nM
Y[Aib]HGTFTSDLSIQK([γGlu-Stearoyl])EKRAAFEFIEWLKNTGPSSGAPPPS-NH2 (N-terminus assumed; SMILES CCCCCCCCCCCCCCCCCC(=O)N[C@@H](CCC(=O)NCCCC[C@H](NC(=O)[C@H](CCC(N)=O)NC(=O)[C@@H](NC(=O)[C@H](CO)NC(=O)[C@H](CC(C)C)NC(=O)[C@H](CC(=O)O)NC(=O)[C@H](CO)NC(=O)[C@@H](NC(=O)[C@H](Cc1ccccc1)NC(=O)[C@@H](NC(=O)CNC(=O)[C@H](Cc1c[nH]cn1)NC(=O)C(C)(C)NC(=O)[C@@H](N)Cc1ccc(O)cc1)[C@@H](C)O)[C@@H](C)O)[C@@H](C)CC)C(=O)N[C@@H](CCC(=O)O)C(=O)N[C@@H](CCCCN)C(=O)N[C@@H](CCCNC(=N)N)C(=O)N[C@@H](C)C(=O)N[C@@H](C)C(=O)N[C@@H](Cc1ccccc1)C(=O)N[C@@H](CCC(=O)O)C(=O)N[C@@H](Cc1ccccc1)C(=O)N[C@H](C(=O)N[C@@H](CCC(=O)O)C(=O)N[C@@H](Cc1c[nH]c2ccccc12)C(=O)N[C@@H](CC(C)C)C(=O)N[C@@H](CCCCN)C(=O)N[C@@H](CC(N)=O)C(=O)N[C@H](C(=O)NCC(=O)N1CCC[C@H]1C(=O)N[C@@H](CO)C(=O)N[C@@H](CO)C(=O)NCC(=O)N[C@@H](C)C(=O)N1CCC[C@H]1C(=O)N1CCC[C@H]1C(=O)N1CCC[C@H]1C(=O)N[C@@H](CO)C(N)=O)[C@@H](C)O)[C@@H](C)CC)C(=O)O) [exendin-4 peptide analogue SEQ ID NO: 32] | 0.0417 nM | 0.0335 nM | 0.0192 nM
Y[Aib]QGTFTSDLSIQK([γGlu-Palmitoyl])DSRAAQDFIEWLKRGGPSSGAPPPS-NH2 (N-terminus assumed; SMILES CCCCCCCCCCCCCCCC(=O)N[C@@H](CCC(=O)NCCCC[C@H](NC(=O)[C@H](CCC(N)=O)NC(=O)[C@@H](NC(=O)[C@H](CO)NC(=O)[C@H](CC(C)C)NC(=O)[C@H](CC(=O)O)NC(=O)[C@H](CO)NC(=O)[C@@H](NC(=O)[C@H](Cc1ccccc1)NC(=O)[C@@H](NC(=O)CNC(=O)[C@H](CCC(N)=O)NC(=O)C(C)(C)NC(=O)[C@@H](N)Cc1ccc(O)cc1)[C@@H](C)O)[C@@H](C)O)[C@@H](C)CC)C(=O)N[C@@H](CC(=O)O)C(=O)N[C@@H](CO)C(=O)N[C@@H](CCCNC(=N)N)C(=O)N[C@@H](C)C(=O)N[C@@H](C)C(=O)N[C@@H](CCC(N)=O)C(=O)N[C@@H](CC(=O)O)C(=O)N[C@@H](Cc1ccccc1)C(=O)N[C@H](C(=O)N[C@@H](CCC(=O)O)C(=O)N[C@@H](Cc1c[nH]c2ccccc12)C(=O)N[C@@H](CC(C)C)C(=O)N[C@@H](CCCCN)C(=O)N[C@@H](CCCNC(=N)N)C(=O)NCC(=O)NCC(=O)N1CCC[C@H]1C(=O)N[C@@H](CO)C(=O)N[C@@H](CO)C(=O)NCC(=O)N[C@@H](C)C(=O)N1CCC[C@H]1C(=O)N1CCC[C@H]1C(=O)N1CCC[C@H]1C(=O)N[C@@H](CO)C(N)=O)[C@@H](C)CC)C(=O)O) [exendin-4 peptide analogue SEQ ID NO: 34] | 0.0074 nM | 0.0513 nM | 0.222 nM
